Reference: patent US20230090247A1, “MOLECULES TARGETING RAS PROTEIN” (AELIN THERAPEUTICS, priority 2020, published 2023)
Square brackets hold non-standard residues; d marks the D form. Peptide text beside a SMILES is read from it. Dap = NC[C@H](N)C(=O)O

Experiments:
[1] = system: NCI-H441 lung adenocarcinoma cells (suspension spheroid cultures); type: cell-based, human
[2] = system: SW620 xenograft of human KRAS G12V mutant colorectal cancer; assay: In vivo SW620 xenograft model; set-up: species or system Female NCr nu/nu mice
Protocol: FIG. 12 illustrates that RAS-targeting pept-ins reduce tumor growth in a xenograft model of KRAS G12V mutant cancer. […] Pept-ins were dosed 3 times per week by intratumoral injection at either 20 or 200 μg once the tumors reached 100-150 mm^3. Model response was monitored by a positive control group receiving Irinotecan at 100 mg/kg, once per week for 3 weeks. Group sizes were N=6 for the non-treated group, N=5 for the vehicle groups and N=8 for the pept-in and positive control groups. Graphs show box plots of tumor volumes at day 22 after treatment started.
Female NCr nu/nu mice (8 to 12 weeks) were inoculated with 1×10^6 SW620 tumor cells in 50% Matrigel subcutaneously in the hind flank. The cell Injection Volume was 0.1 mL/mouse. When tumors reached an average size of 100-150 mm^3 a pair match was performed, and treatment started. Group sizes were N=6 for the non-treated group, N=5 for the vehicle groups and N=8 for the pept-in and positive control groups. Tumor growth was monitored by caliper measurement twice per week. Model response was monitored by Irinotecan dosed once per week at 100 mg/kg intraperitoneally for 3 weeks.
To assess whether the RAS-targeting pept-ins are able to attenuate growth of KRAS G12V-driven tumors in vivo, a subcutaneous xenograft model of human KRAS G12V colorectal cancer (SW620) was used. Once the tumors reached 100-150 mm^3 in size, pept-ins were administered directly into the tumor mass by intratumoral injection three times per week during two weeks at two different doses (20 μg and 200 μg).

KRAS G12V [3] = biological target: T1, KRAS G12V (human, UniProt P01116-2 1-188, limits assumed); assay: cell-based or functional assay
KRAS G12V [4] = biological target: T1, KRAS G12V; assay: cell-based or functional assay; remark: listed apart in the source
KRAS G12V [5] = biological target: T1, KRAS G12V; assay: cell-based or functional assay; remark: listed apart in the source

CC(=O)N[C@@H](CCCCN)C(=O)N[C@H](C(=O)N[C@H](C(=O)N[C@H](C(=O)NCC(=O)N[C@@H](C)C(=O)N[C@H](C(=O)N[C@@H](CCCCN)C(=O)NCC(=O)N[C@@H](CO)C(=O)N[C@@H](C)C(=O)N[C@H](C(=O)N[C@H](C(=O)N[C@H](C(=O)NCC(=O)N[C@@H](C)C(=O)N[C@H](C(=O)N[C@@H](CCCCN)C(N)=O)C(C)C)C(C)C)C(C)C)C(C)C)C(C)C)C(C)C)C(C)C)C(C)C [04-006-N053]
IC50 [1]: 21.6 µM

CC(=O)N[C@@H](CCCCN)C(=O)N[C@H](C(=O)N[C@H](C(=O)N[C@H](C(=O)NCC(=O)N[C@@H](C)C(=O)N[C@H](C(=O)NCC(=O)N[C@@H](CCCCN)C(=O)NCC(=O)N[C@@H](CO)C(=O)N[C@@H](CCCCN)C(=O)N[C@H](C(=O)N[C@H](C(=O)N[C@H](C(=O)NCC(=O)N[C@@H](C)C(=O)N[C@H](C(=O)NCC(=O)N[C@@H](CCCCN)C(N)=O)C(C)C)C(C)C)C(C)C)C(C)C)C(C)C)C(C)C)C(C)C)C(C)C [04-015-N001]
average tumor volume at day 22 after treatment started ([2]; 20 μg intratumoral injection three times per week): significant reduction | average tumor volume at day 22 after treatment started ([2]; 200 μg intratumoral injection three times per week): significant reduction | reduction in tumor growth (comparison between pept-ins) ([2]; intratumoral, 20 μg and 200 μg): strongest reduction in tumor growth

CC(=O)N[C@@H](CCCCN)C(=O)N[C@H](C(=O)N[C@H](C(=O)N[C@H](C(=O)NCC(=O)N[C@@H](C)C(=O)N[C@H](C(=O)NCC(=O)N[C@@H](CCCCN)C(=O)NCC(=O)N[C@@H](Cc1ccccc1)C(=O)N[C@@H](CCCCN)C(=O)N[C@H](C(=O)N[C@H](C(=O)N[C@H](C(=O)NCC(=O)N[C@@H](C)C(=O)N[C@H](C(=O)NCC(=O)N[C@@H](CCCCN)C(N)=O)C(C)C)C(C)C)C(C)C)C(C)C)C(C)C)C(C)C)C(C)C)C(C)C [04-015-N063]
IC50 [1]: 38.7 µM

CC(=O)N[C@@H](CN)C(=O)N[C@H](C(=O)N[C@H](C(=O)N[C@H](C(=O)NCC(=O)N[C@@H](C)C(=O)N[C@H](C(=O)NCC(=O)N[C@H](C(=O)NCC(=O)N[C@@H](CCCCN)C(=O)NCC(=O)N[C@@H](CO)C(=O)N[C@@H](CCCCN)C(=O)N[C@@H](Cc1c[nH]c2ccccc12)C(=O)N[C@H](C(=O)NCC(=O)N[C@@H](C)C(=O)N[C@H](C(=O)NCC(=O)N[C@H](C(=O)NCC(=O)N[C@@H](CN)C(N)=O)C(C)C)C(C)C)C(C)C)C(C)C)C(C)C)C(C)C)C(C)C)C(C)C [04-033-N022] (Ac-[Dap]VVVGAVGVGKGSKWVGAVGVG[Dap]-NH2)
IC50 [1]: 5 µM

Ac-AVVVGAVAGSKVVVGAVK-NH2 [04-006-N082]
IC50 [1]: 18.2 µM

Ac-AVVVGAVKGSAVVVGAVK-NH2 [04-006-N060]
IC50 [1]: 31.7 µM

Ac-AVVVGAVKGSKVVVGAVK-NH2 [04-006-N044]
IC50 [1]: 5.3 µM

Ac-KLSVFAIKKLSVFAIK-NH2 [04-004-N016]
IC50 [1]: 45.9 µM

Ac-KLVVVGAVKGSKLVVVGAVK-NH2 [04-014-N001]
activity in the spheroid setting ([1]; 25 μM, 5 days of exposure): did not display activity

Ac-KVVVGAVAGSKVVVGAVK-NH2 [04-006-N050]
IC50 [1]: 5.7 µM

Ac-KVVVGAVGKFFKVVVGAVGK-NH2 [04-015-N064]
IC50 [1]: 48.9 µM

Ac-KVVVGAVGVGKKVVVGAVGVGK-NH2 [04-033-N007]
IC50 [1]: 13.1 µM

Ac-KVVVGAVKASKVVVGAVK-NH2 [04-006-N051]
IC50 [1]: 10.4 µM

Ac-KVVVGAVKGAKVVVGAVK-NH2 [04-006-N052]
IC50 [1]: 30.6 µM

Ac-KLSVFAIKGSKLSVFAIK-NH2 [pept-in 04-004-N001]
IC50 on viability of adherent NCI-H441 cells, CellTiter Glo, 3 days (KRAS G12V [3]): ~10 µM | decrease in viability of NCI-H441 suspension spheroids, 25 µM, 5 days, CellTiter Glo 3D (KRAS G12V [3]): 75% | Normalised viability NCI-H441 4 days of exposure to 25 µM (%) (KRAS G12V [4]): 6.1%

Ac-KLVVVGAVKGSKLVVVGAVK-NH2 [pept-in 04-014-N001]
IC50 on viability of adherent NCI-H441 cells, CellTiter Glo, 3 days (KRAS G12V [3]): ~10 µM | Normalised viability NCI-H441 4 days of exposure to 25 µM (%) (KRAS G12V [4]): 9.1%

Ac-KVVVGAVGKGSKVVVGAVGK-NH2 [pept-in 04-015-N001]
IC50 on viability of adherent NCI-H441 cells, CellTiter Glo, 3 days (KRAS G12V [3]): ~10 µM | decrease in viability of NCI-H441 suspension spheroids, 25 µM, 5 days, CellTiter Glo 3D (KRAS G12V [3]): ≥ 75% | Normalised viability NCI-H441 4 days of exposure to 25 µM (%) (KRAS G12V [4]): 23.3%

Ac-KVVVGAVGVGKGSKVVVGAVGVGK-NH2 [pept-in 04-033-N001]
IC50 on viability of adherent NCI-H441 cells, CellTiter Glo, 3 days (KRAS G12V [3]): ~10 µM | decrease in viability of NCI-H441 suspension spheroids, 25 µM, 5 days, CellTiter Glo 3D (KRAS G12V [3]): ≥ 75% | Normalised viability NCI-H441 4 days of exposure to 25 µM (%) (KRAS G12V [4]): 5.2%

Ac-KVVVGAVKGSKVVVGAVK-NH2 [pept-in 04-006-N001]
IC50 on viability of adherent NCI-H441 cells, CellTiter Glo, 3 days (KRAS G12V [3]): ~10 µM | decrease in viability of NCI-H441 suspension spheroids, 25 µM, 5 days, CellTiter Glo 3D (KRAS G12V [3]): ≥ 75% | Normalised viability NCI-H441 4 days of exposure to 25 µM (%) (KRAS G12V [4]): 8.7%

Ac-AVVVGAVKGSKVVVGAVK-NH2 [pept-in 04-006-N044]
IC50 on cell viability, NCI-H441 suspension spheroids, CellTiter Glo 3D, 5 days (KRAS G12V [5]): 5.3 µM

Ac-KVVVGAVAGSKVVVGAVK-NH2 [pept-in 04-006-N050]
IC50 on cell viability, NCI-H441 suspension spheroids, CellTiter Glo 3D, 5 days (KRAS G12V [5]): 5.7 µM

Ac-KVVVGAVKGSAVVVGAVK-NH2 [pept-in 04-006-N053]
IC50 on cell viability, NCI-H441 suspension spheroids, CellTiter Glo 3D, 5 days (KRAS G12V [5]): 21.6 µM

Ac-KVVVGAVKGSKVVVGAVA-NH2 [pept-in 04-006-N059]
IC50 on cell viability, NCI-H441 suspension spheroids, CellTiter Glo 3D, 5 days (KRAS G12V [5]): 15.7 µM

Ac-AVVVGAVKGSAVVVGAVK-NH2 [pept-in 04-006-N060]
IC50 on cell viability, NCI-H441 suspension spheroids, CellTiter Glo 3D, 5 days (KRAS G12V [5]): 31.7 µM

Ac-KVVVGAVAGSKVVVGAVA-NH2 [pept-in 04-006-N066]
IC50 on cell viability, NCI-H441 suspension spheroids, CellTiter Glo 3D, 5 days (KRAS G12V [5]): 25.3 µM

Ac-AVVVGAVAGSKVVVGAVK-NH2 [pept-in 04-006-N082]
IC50 on cell viability, NCI-H441 suspension spheroids, CellTiter Glo 3D, 5 days (KRAS G12V [5]): 18.2 µM

Ac-KVVVGAVKASKVVVGAVK-NH2 [pept-in 04-006-N051]
IC50 on cell viability, NCI-H441 suspension spheroids, CellTiter Glo 3D, 5 days (KRAS G12V [5]): 10.4 µM

Ac-KVVVGAVKGAKVVVGAVK-NH2 [pept-in 04-006-N052]
IC50 on cell viability, NCI-H441 suspension spheroids, CellTiter Glo 3D, 5 days (KRAS G12V [5]): 30.6 µM

Ac-KVVVGAVGKGFKVVVGAVGK-NH2 [pept-in 04-015-N063]
IC50 on cell viability, NCI-H441 suspension spheroids, CellTiter Glo 3D, 5 days (KRAS G12V [5]): 38.7 µM

Ac-KVVVGAVGKFFKVVVGAVGK-NH2 [pept-in 04-015-N064]
IC50 on cell viability, NCI-H441 suspension spheroids, CellTiter Glo 3D, 5 days (KRAS G12V [5]): 48.9 µM

Ac-KLSVFAIKKLSVFAIK-NH2 [pept-in 04-004-N016]
IC50 on cell viability, NCI-H441 suspension spheroids, CellTiter Glo 3D, 5 days (KRAS G12V [5]): 45.9 µM

Ac-KVVVGAVGVGKKVVVGAVGVGK-NH2 [pept-in 04-033-N007]
IC50 on cell viability, NCI-H441 suspension spheroids, CellTiter Glo 3D, 5 days (KRAS G12V [5]): 13.1 µM
